Positions count from the first letter of the chain named. Numbers in names are those of the source.

One data set concerns the target GFP-Srs2 1-898 (WT) (Saccharomyces cerevisiae, UniProt P12954 1-898). The data set is described as follows: EMSA; no ATP; 30 mM Tris-HCl pH 7.6, 100 mM KCl, 2 mM MgCl2, 1 mM DTT, 0.2 mg/mL BSA, 30 °C 10 min, no ATP; 1.3 µM (nucleotides) ssDNA, 10-100 nM protein; 10% native PAGE in. Particulars: protein: recombinant; tags: N-terminal GFP; label: 5' fluorescein. Background: A gel shift assay detects complexes by their altered migration in electrophoresis.

A further data set addresses Srs2 898 H650A (Saccharomyces cerevisiae, UniProt P12954 1-898, H650A). Described as above. To be noted: protein: recombinant; tags: N-terminal GFP; label: 5' fluorescein.
In the next data set the target is Srs2 898 F68A (Saccharomyces cerevisiae, UniProt P12954 1-898, F68A). The description is as above. To be noted: protein: recombinant; tags: N-terminal GFP; label: 5' fluorescein.
Sequence of Srs2 898 F68A (P12954 1-898 F68A): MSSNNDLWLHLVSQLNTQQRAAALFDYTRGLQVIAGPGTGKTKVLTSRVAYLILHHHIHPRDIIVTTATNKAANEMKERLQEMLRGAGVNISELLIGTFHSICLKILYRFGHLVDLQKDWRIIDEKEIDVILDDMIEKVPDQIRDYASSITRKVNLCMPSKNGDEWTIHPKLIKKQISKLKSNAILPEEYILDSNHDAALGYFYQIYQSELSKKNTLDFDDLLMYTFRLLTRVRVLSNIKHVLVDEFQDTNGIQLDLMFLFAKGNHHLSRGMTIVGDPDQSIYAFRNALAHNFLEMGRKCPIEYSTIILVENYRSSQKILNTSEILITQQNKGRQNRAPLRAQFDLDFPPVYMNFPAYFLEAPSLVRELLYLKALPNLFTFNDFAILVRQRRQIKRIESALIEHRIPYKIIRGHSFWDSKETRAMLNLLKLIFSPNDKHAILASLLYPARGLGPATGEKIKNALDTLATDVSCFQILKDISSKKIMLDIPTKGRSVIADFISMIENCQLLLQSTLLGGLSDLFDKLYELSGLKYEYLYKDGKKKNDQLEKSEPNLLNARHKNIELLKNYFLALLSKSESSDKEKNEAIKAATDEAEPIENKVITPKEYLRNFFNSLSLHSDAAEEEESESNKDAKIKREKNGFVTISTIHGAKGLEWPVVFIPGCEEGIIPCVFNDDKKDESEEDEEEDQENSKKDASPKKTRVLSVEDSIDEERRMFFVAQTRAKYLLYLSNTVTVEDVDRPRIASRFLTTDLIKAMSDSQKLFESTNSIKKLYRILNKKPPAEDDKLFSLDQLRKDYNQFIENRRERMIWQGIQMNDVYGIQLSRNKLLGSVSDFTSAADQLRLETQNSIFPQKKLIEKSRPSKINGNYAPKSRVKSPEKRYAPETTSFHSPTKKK
Another data set has as its target Srs2 898 F285A (Saccharomyces cerevisiae, UniProt P12954 1-898, F285A). Described as above. Particulars: protein: recombinant; tags: N-terminal GFP; label: 5' fluorescein.
The target of the next data set is Srs2 898 N70A (Saccharomyces cerevisiae, UniProt P12954 1-898, N70A). The description is as above. To be noted: protein: recombinant; tags: N-terminal GFP; label: 5' fluorescein.
Sequence of Srs2 898 N70A (P12954 1-898 N70A): as the sequence (P12954 1-898 F68A) above, with A68F, N70A counted along it
In a further data set the target is Srs2 898 F219A (Saccharomyces cerevisiae, UniProt P12954 1-898, F219A). The data set is described as follows: EMSA; no ATP; Kd within 10% of WT; 30 mM Tris-HCl pH 7.6, 100 mM KCl, 2 mM MgCl2, 1 mM DTT, 0.2 mg/mL BSA, 30 °C 10 min, no ATP; 1.3 µM (nucleotides) ssDNA, 10-100 nM protein; 10% native PAGE in. To be noted: protein: recombinant; tags: N-terminal GFP; label: 5' fluorescein.

Another data set addresses Srs2 898 H100A (Saccharomyces cerevisiae, UniProt P12954 1-898, H100A). The data set is described as above. To be noted: protein: recombinant; tags: N-terminal GFP; label: 5' fluorescein.
A further data set deals with Srs2 898 R286A (Saccharomyces cerevisiae, UniProt P12954 1-898, R286A). The data set is described as follows: EMSA; no ATP; Kd within 10% of WT (printed R268A); 30 mM Tris-HCl pH 7.6, 100 mM KCl, 2 mM MgCl2, 1 mM DTT, 0.2 mg/mL BSA, 30 °C 10 min, no ATP; 1.3 µM (nucleotides) ssDNA, 10-100 nM protein; 10% native PAGE in. To be noted: protein: recombinant; tags: N-terminal GFP; label: 5' fluorescein.

A further data set has as its target Srs2 898 Y283A (Saccharomyces cerevisiae, UniProt P12954 1-898, Y283A). The data set is described as follows: EMSA; no ATP; Kd within 10% of WT (printed Y238A); 30 mM Tris-HCl pH 7.6, 100 mM KCl, 2 mM MgCl2, 1 mM DTT, 0.2 mg/mL BSA, 30 °C 10 min, no ATP; 1.3 µM (nucleotides) ssDNA, 10-100 nM protein; 10% native PAGE in. Particulars: protein: recombinant; tags: N-terminal GFP; label: 5' fluorescein.

Substrate in data set [1]: Nc1ncnc2c1ncn2[C@@H]1O[C@H](COP(=O)(O)OP(=O)(O)OP(=O)(O)O)[C@@H](O)[C@H]1O
The data set is described as follows: ATP hydrolysis, gamma-32P-ATP, thin layer chromatography. Particulars: M13 ssDNA 2.5 µM (nucleotides), 2 mM MgCl2, 100 mM KCl, pH 7.6, 30 °C, 40 nM protein. The format is biochemical, Saccharomyces cerevisiae.

Substrate in data set [2]: Nc1ncnc2c1ncn2[C@@H]1O[C@H](COP(=O)(O)OP(=O)(O)OP(=O)(O)O)[C@@H](O)[C@H]1O
The data set is described as above. The format is biochemical, Saccharomyces cerevisiae. To be noted: M13 ssDNA 2.5 µM (nucleotides), 2 mM MgCl2, 100 mM KCl, pH 7.6, 30 °C, 40 nM protein. The text has this: ATP hydrolysis, gamma-32P-ATP, thin layer chromatography on Srs2^898 (GFP-Srs2 1-898) | The F68A, P671A, and Y775A mutants were all largely unperturbed with respect to ATP hydrolysis
The source holds these as a separate data set.

Substrate in data set [3]: Nc1ncnc2c1ncn2[C@@H]1O[C@H](COP(=O)(O)OP(=O)(O)OP(=O)(O)O)[C@@H](O)[C@H]1O
The data set is described as above. The format is biochemical, Saccharomyces cerevisiae. Particulars: M13 ssDNA 2.5 µM (nucleotides), 2 mM MgCl2, 100 mM KCl, pH 7.6, 30 °C, 40 nM protein. The text has this:
ATP hydrolysis, gamma-32P-ATP, thin layer chromatography on Srs2^898 (GFP-Srs2 1-898) | N70A, H100A, F219A, Y283A, R268A, and R389A mutant proteins were all moderately affected
The source holds these as a separate data set.

Sequence of Srs2 898 H650A (P12954 1-898 H650A): as the sequence (P12954 1-898 F68A) above, with A68F, H650A counted along it

Turning to ATTAAGCTCTAAGCCATGAATTCAAATGACCTCTTATCAA (ssDNA) [40-nt ssDNA], the Kd was found to be 29 ± 3 nM with GFP-Srs2 1-898 (WT); 46 ± 3 nM in the data set with Srs2 898 H650A; 31 ± 2 nM in the data set with Srs2 898 F68A; 41 nM in the data set with Srs2 898 F285A; 30 ± 3 nM with Srs2 898 N70A. In addition, the binding result in the data set with Srs2 898 F219A, with Srs2 898 H100A, with Srs2 898 R286A and with Srs2 898 Y283A was “binds” each time.

B1: Srs2^898 (GFP-Srs2 1-898) (Saccharomyces cerevisiae S288C) (protein)
chain: MSSNNDLWLHLVSQLNTQQRAAALFDYTRGLQVIAGPGTGKTKVLTSRVAYLILHHHIHPRDIIVTTFTNKAANEMKERLQEMLRGAGVNISELLIGTFHSICLKILYRFGHLVDLQKDWRIIDEKEIDVILDDMIEKVPDQIRDYASSITRKVNLCMPSKNGDEWTIHPKLIKKQISKLKSNAILPEEYILDSNHDAALGYFYQIYQSELSKKNTLDFDDLLMYTFRLLTRVRVLSNIKHVLVDEFQDTNGIQLDLMFLFAKGNHHLSRGMTIVGDPDQSIYAFRNALAHNFLEMGRKCPIEYSTIILVENYRSSQKILNTSEILITQQNKGRQNRAPLRAQFDLDFPPVYMNFPAYFLEAPSLVRELLYLKALPNLFTFNDFAILVRQRRQIKRIESALIEHRIPYKIIRGHSFWDSKETRAMLNLLKLIFSPNDKHAILASLLYPARGLGPATGEKIKNALDTLATDVSCFQILKDISSKKIMLDIPTKGRSVIADFISMIENCQLLLQSTLLGGLSDLFDKLYELSGLKYEYLYKDGKKKNDQLEKSEPNLLNARHKNIELLKNYFLALLSKSESSDKEKNEAIKAATDEAEPIENKVITPKEYLRNFFNSLSLHSDAAEEEESESNKDAKIKREKNGFVTISTIHGAKGLEWPVVFIPGCEEGIIPCVFNDDKKDESEEDEEEDQENSKKDASPKKTRVLSVEDSIDEERRMFFVAQTRAKYLLYLSNTVTVEDVDRPRIASRFLTTDLIKAMSDSQKLFESTNSIKKLYRILNKKPPAEDDKLFSLDQLRKDYNQFIENRRERMIWQGIQMNDVYGIQLSRNKLLGSVSDFTSAADQLRLETQNSIFPQKKLIEKSRPSKINGNYAPKSRVKSPEKRYAPETTSFHSPTKKK
notes: residues 1-898 of 1174 (C-terminal 276 residues omitted), N-terminal GFP tag kept, pET15b, Talon purified; expressed in E. coli Rosetta2 (DE3)
Turning to B1, in [1], the Km amounted to 1580 ± 710 µM and the kcat amounted to 51 ± 8 s⁻¹.

B2: Srs2^898 (GFP-Srs2 1-898) (Saccharomyces cerevisiae S288C; Y775A) (protein)
chain: B1 chain with Y775A
notes: as for B1
For B2, in data set [2], the Km amounted to 1610 ± 740 µM and the kcat came to 51 ± 8 sec–1.

B3: Srs2^898 (GFP-Srs2 1-898) (Saccharomyces cerevisiae S288C; P671A) (protein)
chain: B1 chain with P671A
notes: as for B1
With B3, in data set [2], the Km amounted to 1590 ± 720 µM and the kcat came out at 50 ± 7 sec–1.

B4: Srs2^898 (GFP-Srs2 1-898) (Saccharomyces cerevisiae S288C; F219A) (protein)
chain: B1 chain with F219A
notes: as for B1
With B4, in data set [3], the Km was 1510 ± 660 µM and the kcat stood at 42 ± 6 sec–1.

B5: Srs2^898 (GFP-Srs2 1-898) (Saccharomyces cerevisiae S288C; R389A) (protein)
chain: B1 chain with R389A
notes: as for B1
As to B5, in data set [3], the Km came to 1600 ± 720 µM and the kcat was determined as 44 ± 7 sec–1.

B6: Srs2^898 (GFP-Srs2 1-898) (Saccharomyces cerevisiae S288C; H650A) (protein)
chain: B1 chain with H650A
notes: as for B1
B6: in data set [1], the Km came to 2910 ± 780 µM and the kcat amounted to 15 ± 2 sec–1.

B7: Srs2^898 (GFP-Srs2 1-898) (Saccharomyces cerevisiae S288C; F68A) (protein)
chain: B1 chain with F68A
notes: as for B1
For B7, in data set [2], the Km came out at 1520 ± 710 µM and the kcat turned out to be 49 ± 8 sec–1.

B8: Srs2^898 (GFP-Srs2 1-898) (Saccharomyces cerevisiae S288C; F285A) (protein)
chain: B1 chain with F285A
notes: as for B1
Turning to B8, in [1], the Km was 2750 ± 790 µM and the kcat came out at 25 ± 4 sec–1.

B9: Srs2^898 (GFP-Srs2 1-898) (Saccharomyces cerevisiae S288C; N70A) (protein)
chain: B1 chain with N70A
notes: as for B1
Turning to B9, in data set [3], the Km is 1320 ± 670 µM and the kcat is recorded as 47 ± 7 sec–1.

B10: Srs2^898 (GFP-Srs2 1-898) (Saccharomyces cerevisiae S288C; H100A) (protein)
chain: B1 chain with H100A
notes: as for B1
For B10, in data set [3], the Km stood at 1330 ± 710 µM and the kcat is listed as 45 ± 8 sec–1.

B11: Srs2^898 (GFP-Srs2 1-898) (Saccharomyces cerevisiae S288C; Y283A) (protein)
chain: B1 chain with Y283A
notes: as for B1
For the molecule B11, in data set [3], the Michaelis constant (Km) was 1520 ± 630 µM and the kcat came out at 44 ± 6 sec–1.

As a reminder, the Kd is the constant that tells how readily two partners part at equilibrium. As a reminder, the Km is the substrate concentration at which the rate is half of its maximum.

The values are drawn from PMC10709652, “The separation pin distinguishes the pro– and anti–recombinogenic functions of Saccharomyces cerevisiae Srs2” (Nature Communications, 2023).
